Measured values: patent US20220340685A1, “COMBINATION THERAPY WITH ENTPD2 AND CD73 ANTIBODIES” (Novartis AG, priority 2019, published 2022)

How the values were obtained:
[1] = target: T1, recombinant human ENTPD2 (residues 29-462) (Homo sapiens, UniProt Q9Y5L3); assay: Biochemical human ENTPD2 functional assay (Transcreener ADP2 TR-FRET)
T1 construct: residues 29-462 of human or cyno ENTPD2; GP67 signal peptide (N); made in house; host or cells: High Five (Trichoplusia ni) insect cells, baculovirus
T1 sequence (Q9Y5L3 29-462): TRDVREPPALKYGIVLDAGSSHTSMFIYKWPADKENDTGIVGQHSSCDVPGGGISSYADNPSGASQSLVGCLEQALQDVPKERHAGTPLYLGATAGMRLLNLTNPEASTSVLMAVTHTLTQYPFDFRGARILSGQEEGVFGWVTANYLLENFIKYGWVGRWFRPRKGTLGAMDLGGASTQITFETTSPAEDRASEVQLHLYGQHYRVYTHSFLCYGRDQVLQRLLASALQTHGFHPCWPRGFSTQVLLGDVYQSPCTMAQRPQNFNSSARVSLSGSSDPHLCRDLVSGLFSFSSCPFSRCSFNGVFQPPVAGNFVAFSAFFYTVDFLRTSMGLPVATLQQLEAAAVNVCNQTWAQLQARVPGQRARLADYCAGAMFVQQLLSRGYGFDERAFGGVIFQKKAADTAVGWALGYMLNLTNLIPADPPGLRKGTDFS
Excerpt: Biochemical and cell-based functional assays were developed in-house to understand functional impact of anti-ENTPD2 Abs against purified extracellular domain of ENTPD2 (residues 29-462), as well as against the fully intact protein in the context of the native cell-based conformation. ENTPD2 hydrolyzes ATP to ADP, which can subsequently be detected using the HTRF Transcreener ADP2 TR-FRET Red Assay (BellBrook Labs, Madison, Wis.) where ENTPD2-produced ADP would compete with the ADP Tracer for binding to the anti-ADP-Tb antibody. The resulting signal is inversely proportional to the concentration of ADP in the sample. […]
HTRF signal (Emission at 620 nm and 665 nm) was assessed in both assays using the Envision plate reader in HTRF mode (Perkin Elmer, Waltham, Mass.). HTRF ratio was determined using the following formula: HTRF ratio=R=Emission at 665 nm/Emission at 620 nm×10,000. Subsequently % Residual Activity and % Inhibition were determined as follows:
Where R0% is the HTRF ratio of the negative control (0% enzyme activity), and R100% is the HTRF ratio of the positive control (100% enzyme activity). Data were analyzed in Microsoft Excel and graphed using GraphPad's Prism 7.0 software and IC50 values were obtained using non-linear regression, log (agonist) vs. response-variable slope (four parameters) analysis.

[2] = target: T2, ENTPD2 (Homo sapiens, UniProt Q9Y5L3); assay: Cell-based screen of hybridoma-derived mAbs for inhibition of ATP hydrolysis by ENTPD2
T2 sequence (Q9Y5L3 1-495): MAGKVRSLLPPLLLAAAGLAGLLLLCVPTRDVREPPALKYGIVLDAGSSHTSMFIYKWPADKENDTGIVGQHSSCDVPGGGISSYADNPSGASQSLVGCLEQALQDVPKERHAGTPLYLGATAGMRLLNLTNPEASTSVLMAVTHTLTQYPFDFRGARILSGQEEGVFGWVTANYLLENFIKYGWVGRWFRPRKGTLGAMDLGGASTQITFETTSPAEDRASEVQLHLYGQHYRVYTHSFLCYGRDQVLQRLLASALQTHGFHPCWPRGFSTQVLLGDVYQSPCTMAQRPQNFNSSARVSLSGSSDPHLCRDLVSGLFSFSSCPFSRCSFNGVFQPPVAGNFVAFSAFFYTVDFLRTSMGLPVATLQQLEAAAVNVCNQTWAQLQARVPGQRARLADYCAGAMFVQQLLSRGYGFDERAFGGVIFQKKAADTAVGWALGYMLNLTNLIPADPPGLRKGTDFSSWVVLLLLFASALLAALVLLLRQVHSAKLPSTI
Excerpt: Hybridoma-derived mAbs were screened in a cell-based assay for inhibition of ATP hydrolysis by ENTPD2.

B1: mAb17: hybridoma-derived anti-human ENTPD2 lead inhibitory mAb (chimeric); VH/VL DNA SEQ ID NO: 234/238 (antibody, V domains shown)
VH: EVQLQQFGAELVKPGASVKISCKASGYTFTDYNMDWVKQSHGKSLEWIGDINPKYDISTYNQQFKGKATLTVDKSSSTAYMELRSLTSEDTAVYYCARRGFFLYYGINYYYFDVWGAGTTVTVSS
VL: QIVLTQSPAIMSASLGEEITLTCSASSSVSYIHWYQQKSGTSPTLLIYSTSNLASGVPSRFSGSGSGTFYSLTISSVEAEDAADYYCHQWSSYPWTFGGGTKLEIK
modifications: constant regions not cited
[1]
  inhibition of the catalytic activity of recombinant human ENTPD2: potently inhibit
[2]
  inhibition of ATP hydrolysis by ENTPD2 (screen outcome): lead inhibitory mAbs
